Laboratory results reported in patent US20250206841A1 (ADEPT THERAPEUTICS, published 2025).
Residue numbers refer to the chain shown, from its start.

T1: human Trop-2 expressed on cell surface (human, UniProt P09758 27-323)
T1 sequence (looked up): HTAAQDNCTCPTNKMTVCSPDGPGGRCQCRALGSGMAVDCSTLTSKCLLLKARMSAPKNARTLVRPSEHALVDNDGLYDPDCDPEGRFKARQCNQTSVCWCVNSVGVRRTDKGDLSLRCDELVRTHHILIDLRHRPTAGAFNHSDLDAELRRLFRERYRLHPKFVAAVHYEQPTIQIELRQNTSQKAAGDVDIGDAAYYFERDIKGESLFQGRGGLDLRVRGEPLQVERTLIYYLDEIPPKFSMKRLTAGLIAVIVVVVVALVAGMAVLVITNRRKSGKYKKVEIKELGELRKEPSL

T2: human Trop-1 (EpCAM) (human, UniProt P16422 24-265, limits assumed)
T2 sequence (looked up): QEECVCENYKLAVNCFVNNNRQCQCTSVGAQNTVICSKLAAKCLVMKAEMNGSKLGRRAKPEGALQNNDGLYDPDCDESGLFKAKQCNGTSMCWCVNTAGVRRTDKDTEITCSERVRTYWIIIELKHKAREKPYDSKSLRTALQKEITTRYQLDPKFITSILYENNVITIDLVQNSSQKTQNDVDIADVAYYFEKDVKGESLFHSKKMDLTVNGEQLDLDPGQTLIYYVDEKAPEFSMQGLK

T3: rat Trop-2 (rat, UniProt Q6P9Z6 25-270, limits assumed)
T3 sequence (looked up): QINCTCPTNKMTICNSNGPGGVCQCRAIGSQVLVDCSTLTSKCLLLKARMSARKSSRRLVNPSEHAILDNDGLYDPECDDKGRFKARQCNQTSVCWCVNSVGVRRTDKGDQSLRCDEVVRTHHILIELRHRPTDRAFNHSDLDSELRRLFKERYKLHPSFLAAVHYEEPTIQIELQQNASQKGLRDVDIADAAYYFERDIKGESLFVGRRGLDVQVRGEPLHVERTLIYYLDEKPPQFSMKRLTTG

T4: mouse Trop-2 (mouse, UniProt Q8BGV3 25-270, limits assumed)
T4 construct: also called Kactus Cat #TRP-MM121
T4 sequence (looked up): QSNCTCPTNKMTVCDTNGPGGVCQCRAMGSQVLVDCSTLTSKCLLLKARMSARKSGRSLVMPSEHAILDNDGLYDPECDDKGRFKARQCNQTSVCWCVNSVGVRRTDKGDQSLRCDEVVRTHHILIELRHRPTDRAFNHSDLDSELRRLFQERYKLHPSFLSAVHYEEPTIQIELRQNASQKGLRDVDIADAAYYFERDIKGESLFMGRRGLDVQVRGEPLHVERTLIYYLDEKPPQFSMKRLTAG

T5: cynomolgus Trop-2-His protein (cynomolgus, UniProt P09758 27-274 (human entry))
T5 construct: also called cynmolgus Trop-His; Kactus Cat #TRP-CM121; not shown: His tag
T5 chain: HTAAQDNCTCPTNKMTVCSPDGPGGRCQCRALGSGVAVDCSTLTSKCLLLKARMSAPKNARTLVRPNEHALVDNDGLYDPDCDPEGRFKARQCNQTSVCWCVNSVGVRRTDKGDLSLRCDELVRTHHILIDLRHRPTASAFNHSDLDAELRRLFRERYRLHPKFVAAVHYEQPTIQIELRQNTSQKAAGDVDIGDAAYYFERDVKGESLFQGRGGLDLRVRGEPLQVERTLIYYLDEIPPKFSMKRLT

T6: human Trop-2-His protein (human, UniProt P09758 27-274)
T6 construct: extracellular domain; Assay paragraphs say only 'Trop-2-His'; also called hTrop-2; Kactus Cat #TRP-HM121; not shown: His tag
T6 sequence (looked up): T5 chain with V36M, N67S, S139G, V204I

B1: 5D4-2 (antibody, V domains shown)
VH: QQLEESGGGLVKPEGSLTLTCKGSGFDFSGTYWMWWVRQAPGKGLEWIASIYVGSGSSTYYASWAKGRFTISSTSSTAVTLQATSLTAADTATYFCARGATNNVFMNYFNLWGPGTLVTVSS
VL: FEMTQTPSSVSEPVGGTVTIKCQASEDISSNLGWYQQKPGQPPKLLIYGASTLASGVPSRFKGSGSGTEFTLTISDLEAADAATYYCQTSYYIDDGVNGFGGGTEVVVK
B2: 63H3 (antibody, V domains shown)
VH: QEQLKESGGGLVQPGGSLKLSCKASGFDFNSYGVSWVRQAPGKGLEWIAYIYPAFHNAYYANWVNGRFTISSDNAQNTVDLQLNSLTAADTATYFCARDAGGTDYNYNLWGPGTLVTVSS
VL: DVVMTQTPASVEVAVGGTVTLKCQASEDIESYSAWYQQKPGQPPNLLIYEASKLASGVSSRFSGSGYGTEFTLTISGVECADAATYYCQQALTIGNVDNPFGGGSEVVVR
notes: Rabbit-derived clone; LEM construct: VH + rabbit IgG CH1 + human IgG1 CH2-CH3
B3: 65D5 (antibody, V domains shown)
VH: B2 VH with S31A, A58T, N62T, D73H, V79L, D80Y, S85T, G102T, Y107F
VL: DIVMTQTPASVSEPVGGTVTIKCQASQSISSYLAWYQQKPGQPPKLLIYEATKLTSGVSSRFSGSGYGTEFTLTISGVECADAATYYCQQALTVGDVDNPFGGGSEVVVK
notes: as for B2
B4: 66A1 (antibody, V domains shown)
VH: B2 VH with S31N, A58T, N62S, D73H, V79L, D80Y, N106A
VL: DVVMTQTPASVEAAVGGTVSINCQASEDIESYLAWYQQKPGQPPKLLIYKASTLASGVSSRFKGSGSGKQFTLTISGVECADAATYYCQQVLTIGNVDNPFGGGSEVVVK
notes: as for B2

biological target: T1, human Trop-2 expressed on cell surface; assay: cell-based or functional assay

Binder	EC50 of ADCC (NFAT-CD16 reporter), MCF-7	EC50 of ADCC (NFAT-CD16 reporter), MDA-MB-231
B1	0.52 nM	0.08 nM
B2	0.17 nM	0.03 nM
B3	0.32 nM	0.05 nM
B4	0.22 nM	0.06 nM

biological target: T2, human Trop-1 (EpCAM); assay: ELISA, similar to Table 24
Experimental: (§1) Purified antibodies were tested by ELISA to confirm their binding and affinity against human and cynomolgus Trop-2-His protein. Briefly, 96-well Maxisorp plates (Nunc) were coated with 100 μl/well of 0.5 μg/ml human (Kactus Cat #TRP-HM121, or Sino Biological, Cat #10428-HO8H) or cynomolgus Trop-2 protein (Kactus Cat #TRP-CM121, or Sino Biological, Cat #90893-CO8H) diluted in 1×PBS (GIBCO) overnight at 4° C. Plates were washed four times with 300 μl/well washing buffer (1×PBST, diluted from 20×PBST (Thermo Scientific) with distilled water)) and then blocked with 300 μl/well of blocking buffer (1×PBST/3% BSA (BSA, Sigma)) for 2 hours at RT on plate shaker at 100 rpm. Plates were washed and added with 100 μl/well of testing antibodies, which were serial diluted with assay buffer (PBST/1% BSA). The antibodies were incubated at room temperature for 2 hours on plate shaker at 100 rpm. Plates were washed. One hundred microliters (100 μl) of 1:10,000 diluted horseradish peroxidase (HRP) conjugated anti-hIgG antibody (Jackson Immuno Research) was added into each well and incubated at room temperature for 1 hour on plate shaker at 100 rpm. Plates were washed and added with 100 μl/well TMB substrate for color development in dark at room temperature for up to 10 minutes. After addition of 50 μl/well of stop solution (1N H₂SO₄), plates were read at 450 nm on a plate reader (SpectraMax M5). EC₅₀ values were calculated using Graphpad Prism. Sacituzumab govitecan, was used as positive control. Anti-HEL.hIgG1 was used as isotype control.
(§2) Similar assays were performed to test whether the exemplary antibodies of the present disclosure bind to human Trop-1 (EpCAM) or mouse Trop-2 (Kactus, Cat #TRP-MM121) or rat Trop-2 (kactus, Cat #TRP_RM121). No binding of the exemplary antibodies of the present disclosure to human Trop-1 (EpCAM) or mouse or rat Trop-2 has been detected.

Binder	binding result
B1	no binding
B2	no binding
B3	no binding
B4	no binding

biological target: T3, rat Trop-2; assay: ELISA, similar to Table 24
Experimental: as §1, §2

Binder	binding result
B1	no binding
B2	no binding
B3	no binding
B4	no binding

biological target: T4, mouse Trop-2; assay: ELISA, similar to Table 24
Experimental: as §1, §2

Binder	binding result
B1	no binding
B2	no binding
B3	no binding
B4	no binding

biological target: T1, human Trop-2 expressed on cell surface; assay: cell-based or functional assay; remark: another data set of the same source

Binder	Internalization %, MCF-7, 0.25 µg/ml, 1 h	Internalization %, MCF-7, 0.25 µg/ml, 2 h	Internalization %, MCF-7, 0.25 µg/ml, 4 h	Internalization %, MCF-7, 0.5 µg/ml, 1 h	Internalization %, MCF-7, 0.5 µg/ml, 2 h	Internalization %, MCF-7, 0.5 µg/ml, 4 h
B1	51%	67%	58%	23%	43%	61%
B2	15%	26%	36%	23%	37%	44%
B3	18%	36%	41%	23%	41%	42%
B4	20%	36%	45%	33%	45%	53%

Biological target: T5, cynomolgus Trop-2-His protein
Assay: ELISA, coated Trop-2 protein
In short: (§3)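 Purified antibodies were checked for binding to human or cynomolgus Trop-2-His protein by ELISA. Maxisorp plates were coated overnight at 4° C with 0.5 μg/ml protein, blocked with PBST/3% BSA, and incubated with serially diluted antibodies. Binding was detected with HRP-conjugated anti-hIgG and TMB, read at 450 nm, and EC₅₀ values were calculated in Graphpad Prism.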

Binder	EC50
B1	0.018 nM
B2	0.033 nM
B3	0.015 nM
B4	0.014 nM

biological target: T6, human Trop-2-His protein; assay: ELISA, coated Trop-2 protein
In short: as §3

Binder	EC50
B1	0.015 nM
B2	0.029 nM
B3	0.019 nM
B4	0.013 nM
